Test results as given in patent US20230192815A1.
Each block holds one molecule with its values, some of them ahead of it.

Experiments:
[1] = target: Canine parvovirus CPV-2c (TS02 strain), purified virus (canine parvovirus CPV-2c, TS02 strain); test: indirect ELISA, purified CPV coated, serum dilution 1:5000; control of the third immunization serum
[2] = target: Canine parvovirus CPV-2c (TS02 strain), purified virus (canine parvovirus CPV-2c, TS02 strain); test: indirect ELISA, purified CPV coated, serum dilution 1:1000; control of the fourth immunization serum
[3] = target: Canine parvovirus CPV-2c (TS02 strain), purified virus (canine parvovirus CPV-2c, TS02 strain); test: indirect ELISA, purified CPV coated, serum dilution printed 1:1250000 (text: 125,000 times); control of the fourth immunization serum
[4] = target: Canine parvovirus CPV-2c (TS02 strain), purified virus (canine parvovirus CPV-2c, TS02 strain); test: indirect ELISA, purified CPV coated, serum dilution printed 1:1250000 (text: 125,000 times); control of the third immunization serum
[5] = target: Canine parvovirus CPV-2c (TS02 strain), purified virus (canine parvovirus CPV-2c, TS02 strain); test: indirect ELISA, purified CPV coated, serum dilution 1:25000; control of the fourth immunization serum
[6] = target: Canine parvovirus CPV-2c (TS02 strain), purified virus (canine parvovirus CPV-2c, TS02 strain); test: indirect ELISA, purified CPV coated, serum dilution 1:1000; control of the third immunization serum
[7] = target: Canine parvovirus CPV-2c (TS02 strain), purified virus (canine parvovirus CPV-2c, TS02 strain); test: indirect ELISA, purified CPV coated, serum dilution 1:5000; control of the fourth immunization serum
[8] = target: Canine parvovirus CPV-2c (TS02 strain), purified virus (canine parvovirus CPV-2c, TS02 strain); test: indirect ELISA, purified CPV coated, serum dilution 1:25000; control of the third immunization serum
[9] = target: Canine parvovirus CPV-2c (TS02 strain), purified virus (canine parvovirus CPV-2c, TS02 strain); test: indirect ELISA, purified CPV coated, nanobody dilution 1:100, anti-His-HRP
[10] = target: Canine parvovirus CPV-2c (TS02 strain), purified virus (canine parvovirus CPV-2c, TS02 strain); test: indirect ELISA, purified CPV coated, nanobody dilution 1:10000, anti-His-HRP
[11] = target: Canine parvovirus CPV-2c (TS02 strain), purified virus (canine parvovirus CPV-2c, TS02 strain); test: cell-based or functional assay
[12] = target: Canine parvovirus CPV-2c (TS02 strain), purified virus (canine parvovirus CPV-2c, TS02 strain); test: indirect ELISA, purified CPV coated, nanobody dilution 1:1000, anti-His-HRP
[13] = target: Canine parvovirus CPV-2c (TS02 strain), purified virus (canine parvovirus CPV-2c, TS02 strain); test: indirect ELISA, purified CPV coated, nanobody dilution 1:10, anti-His-HRP

Molecule: Negative serum of non-immunized alpaca
mean OD450 nm [1]: 0.071 OD450 nm
mean OD450 nm [2]: 0.371 OD450 nm
mean OD450 nm [3]: 0.067 OD450 nm
mean OD450 nm [4]: 0.044 OD450 nm
mean OD450 nm [5]: 0.083 OD450 nm
mean OD450 nm [6]: 0.158 OD450 nm
mean OD450 nm [7]: 0.16 OD450 nm
mean OD450 nm [8]: 0.048 OD450 nm

mean OD450 nm [9]: 2.46 OD450 nm
mean OD450 nm [10]: 0.1 OD450 nm
neutralization titer (CPV neutralization assay, CPE on CRFK cells) (titer (1:x dilution)) [11]: < 10
mean OD450 nm [12]: 0.28 OD450 nm
mean OD450 nm [13]: 2.56 OD450 nm
B1: CPV nanobody CPV-VHH-H1 (VHH)
VHH: QVQLVESGGGLAQPGGSLRLSCAASGAIDSISAMRWFRQPPGKQRAVVASITSDGVTTYADSVKGRFTISRDNAENTLYLQMNSLKTEDTGVYYCYAALKGYSSGVVAASWGQGTQVTVSG
